How the values were obtained:
Mm GS = target: T1, Mm GS (Methanosarcina mazei, UniProt Q8PY99); assay: cryo-EM structure, […] A; assay type: binding; conditions: formed in situ from ATP; with Met-Sox-P; 5 mM MgCl2, pH 7.5; active site
T1 construct: gene glnA1; labile dodecamer (two hexamer rings), active site between two subunits; catalytic residues Asp57, Glu307

[1] = target: T2, Methanosarcina mazei glutamine synthetase (Methanosarcina mazei), Q8PY99; assay: fluorescence polarisation; apparent; GS titrated to saturation into 1 nM Fluorescein-12-ATP, then GlnK1 titrated in; 25 mM Tris pH 7.5, 100 mM NaCl, 1 mM MgCl2; conditions: remark: other sources report otherwise
T2 chain: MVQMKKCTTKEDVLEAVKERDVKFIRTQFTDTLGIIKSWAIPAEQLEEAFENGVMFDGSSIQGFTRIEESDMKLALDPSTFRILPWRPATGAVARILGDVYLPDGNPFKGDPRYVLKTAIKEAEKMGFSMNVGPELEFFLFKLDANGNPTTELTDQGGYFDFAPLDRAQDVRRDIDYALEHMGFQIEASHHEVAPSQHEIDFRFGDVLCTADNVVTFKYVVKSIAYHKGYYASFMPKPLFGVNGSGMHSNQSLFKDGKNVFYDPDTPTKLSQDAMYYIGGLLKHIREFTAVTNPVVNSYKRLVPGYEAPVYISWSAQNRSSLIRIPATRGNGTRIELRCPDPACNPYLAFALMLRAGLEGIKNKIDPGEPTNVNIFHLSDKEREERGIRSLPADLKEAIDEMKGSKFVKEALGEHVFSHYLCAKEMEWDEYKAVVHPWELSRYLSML

[2] = target: the molecule itself; assay: crystal structure; Mm GS-GlnK1 complex formed by mixing ~2:1 (excess GlnK1) and SEC; 30% PEG 400, 0.1 M sodium cacodylate pH 6.5, 0.1 M LiSO4
[3] = target: the molecule itself; assay: mass photometry; protein at 75 nM final, 20 mM Tris pH 7.5, 150 mM NaCl, room temperature; Refeyn OneMP; four measurements
[4] = target: the molecule itself; assay: cryo-EM structure; apo Mm GS at ~20 uM (1.0 mg/mL), 12.5 mM Tris pH 7.5, 5 mM MgCl2, 150 mM NaCl, 2.5% glycerol, 1 mM bME; dodecamer and partial oligomer from one dataset
[5] = target: the molecule itself; assay: crystal structure; Mm GS(R167L-A168G), 35% PEG 200, 0.1 M sodium citrate pH 5.5; three subunits in the asymmetric unit, symmetry generates the dodecamer

Molecule: Nc1ncnc2c1ncn2[C@@H]1O[C@H](COP(=O)(O)OP(=O)(O)O)[C@@H](O)[C@H]1O [ADP]
- cryo-EM structure, 2.7 A (Mm GS): In the Mm GS TS structure, the ADP is anchored into the active site pocket

B1: Methanosarcina mazei GlnK1 (natural protein)
chain: MVAMKYVIAMIRPERLDAVKRELQKIEVSRLTVSSVSGYGAQKGYMEIYRAMEYDANLLEKIKIEIAVNDEFLEPTIEAIKTGAKGSDGYVGSGKIFVLPLENVIRIRTNETGPEAI
notes: GlnK1, PII family nitrogen regulatory protein of Methanosarcina mazei; gene bought from Genscript, in pET15b; Trimer in the crystal structure of the complex with GS; also called Mm GlnK1; WT GlnK1; source: E. coli C41(DE3), purified (cobalt NTA TALON)
- Kd [1]: 6.4 µM
- stoichiometry N [2]: 3

B2: Bacillus subtilis glutamine synthetase (enzyme)
chain: AKYTREDIEKLVKEENVKYIRLQFTDILGTIKNVEIPVSQLGKALDNKVMFDGSSIEGFVRIEESDMYLYPDLNTFVIFPWTAEKGKVARFICDIYNPDGTPFEGDPRNNLKRILKEMEDLGFSDFNLGPEPEFFLFKLDEKGEPTLELNDKGGYFDLAPTDLGENCRRDIVLELEEMGFEIEASHHEVAPGQHEIDFKYAGAVRSCDDIQTFKLVVKTIARKHGLHATFMPKPLFGVNGSGMHCNLSLFKNGVNAFFDENADLQLSETAKHFIAGIVKHATSFTAVTNPTVNSYKRLVPGYEAPCYVAWSAQNRSPLIRIPASRGISTRVEVRSVDPAANPYLALSVLLAAGLDGIKNKLEAPAPIDRNIYVMSKEERMENGIVDLPATLAEALEEFKSNEVMVKALGEHLFEHFIEAKEIEWDMFRTQVHPWEREQYMSQY
notes: glutamine synthetase (GS) of Bacillus subtilis; also called Bs GS; apo Bs GS
- stoichiometry N [3]: 12

B3: Methanosarcina mazei glutamine synthetase (enzyme)
chain: MVQMKKCTTKEDVLEAVKERDVKFIRTQFTDTLGIIKSWAIPAEQLEEAFENGVMFDGSSIQGFTRIEESDMKLALDPSTFRILPWRPATGAVARILGDVYLPDGNPFKGDPRYVLKTAIKEAEKMGFSMNVGPELEFFLFKLDANGNPTTELTDQGGYFDFAPLDRAQDVRRDIDYALEHMGFQIEASHHEVAPSQHEIDFRFGDVLCTADNVVTFKYVVKSIAYHKGYYASFMPKPLFGVNGSGMHSNQSLFKDGKNVFYDPDTPTKLSQDAMYYIGGLLKHIREFTAVTNPVVNSYKRLVPGYEAPVYISWSAQNRSSLIRIPATRGNGTRIELRCPDPACNPYLAFALMLRAGLEGIKNKIDPGEPTNVNIFHLSDKEREERGIRSLPADLKEAIDEMKGSKFVKEALGEHVFSHYLCAKEMEWDEYKAVVHPWELSRYLSML
notes: glutamine synthetase (GS) of Methanosarcina mazei; gene bought from Genscript, in pET15b; Oligomeric state depends on concentration: dimers at 75 nM, dodecamers and partial oligomers at about 20 uM (1 mg/mL); also called Mm GS; WT Mm GS; source: E. coli C41(DE3), purified (cobalt NTA TALON)
- stoichiometry N [4]: 12
- stoichiometry N [3]: 2

B4: Mm GS(R167L-A168G) (enzyme, Methanosarcina mazei)
chain: MVQMKKCTTKEDVLEAVKERDVKFIRTQFTDTLGIIKSWAIPAEQLEEAFENGVMFDGSSIQGFTRIEESDMKLALDPSTFRILPWRPATGAVARILGDVYLPDGNPFKGDPRYVLKTAIKEAEKMGFSMNVGPELEFFLFKLDANGNPTTELTDQGGYFDFAPLDLGQDVRRDIDYALEHMGFQIEASHHEVAPSQHEIDFRFGDVLCTADNVVTFKYVVKSIAYHKGYYASFMPKPLFGVNGSGMHSNQSLFKDGKNVFYDPDTPTKLSQDAMYYIGGLLKHIREFTAVTNPVVNSYKRLVPGYEAPVYISWSAQNRSSLIRIPATRGNGTRIELRCPDPACNPYLAFALMLRAGLEGIKNKIDPGEPTNVNIFHLSDKEREERGIRSLPADLKEAIDEMKGSKFVKEALGEHVFSHYLCAKEMEWDEYKAVVHPWELSRYLSML
notes: glutamine synthetase (GS) of Methanosarcina mazei with R167L and A168G; gene bought from Genscript, in pET15b; everywhere else R167L; also called mutant Mm GS; source: E. coli C41(DE3), purified (cobalt NTA TALON)
- stoichiometry N [5]: 12

Reference: PMC10651883, “M. mazei glutamine synthetase and glutamine synthetase-GlnK1 structures reveal enzyme regulation by oligomer modulation” (Nature Communications, 2023)
